# ± gives the half width of the 95% confidence interval.
# Experiments:
# [1] = folding stability dG unfold from chymotrypsin proteolysis; higher = more stable
# Method: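 Folding stability of de novo designed mini-proteins (<80 aa, no Cys; designed by TrROS, TrMRF, ProteinMPNN and the joint model) was measured by cDNA display proteolysis with trypsin and chymotrypsin. Each protease was used at 11 concentrations in a threefold dilution series plus a no-protease condition. K50 was inferred by Bayesian fitting of sequencing counts, and dG unfold was derived against a sequence-predicted unfolded-state K50 (Tsuboyama et al. method). Sequences shown include variable-length N-terminal GS-type padding (SAGGSAGG...) inside a display construct carrying a PA tag. Rows were kept only if the AF2 dimer inter-PAE was >15, to exclude likely homo-oligomers.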
# [2] = folding stability dG unfold (combined trypsin and chymotrypsin); higher = more stable
# Summary of the method: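 Designed mini-proteins with no cysteine and under 80 residues were kept only if AlphaFold2 dimer inter-PAE was above 15. In a PA-tagged cDNA display construct, they were digested with trypsin and chymotrypsin and then sequenced. K50 was inferred by Bayesian fitting of counts, and unfolding free energy was derived per protease or combined against a sequence-predicted unfolded-state K50 and a shared folded-state K50.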
Sequence,folding stability dG unfold [1] [kcal/mol],folding stability dG unfold [2] [kcal/mol]
SAGGSAGGMKITITFPDGTKKEIEVESEEELLEAIKKLAEELGLEKEVTVTVEYNGKTYTITLKSAGGSAGG [r6_531_TrROS_Hall],5.13 ± 0.25,5.06 ± 0.32
SAGGSAGGMKTKTYTIPLSQVSSIDPSGTVSEEEVKALGLPPNFKATVVPLPGSEEAVEVTVPESAGGSAGG [r6_553_JUSTAS],0.115 ± 0.11,-0.381 ± 0.18
SAGGSAGGMTIPAEKIKGKPIKVLVDRGNAIFPLKEAKVKTKPDGRVELYVPKELGEDTKIIAGSAGGSAGG [r6_628_TrMRF],-0.573 ± 0.18,< -1
SAGGSAGGMVKTYKTDKETAIELAEKIKKQGVKVEITPHPDSTLLTITINEPKIDPKNSPNIIISAGGSAGG [r6_392_JUSTAS],0.0843 ± 0.3,< -1
SAGGSAGGPIRIDPEDGRIRNNGQPYKFDKIEDIEPNENNKSIRLTIRMKNGKEHKQPIPADDISAGGSAGG [r6_682_TrROS],-0.759 ± 1,< -1
SAGGSAGGPKWRRYTIPLDKIKEIDPGGTVTLDDIQDLGLPPDHEIRVVPRPDGEPWVSIEVPYSAGGSAGG [r6_553_TrROS],0.506 ± 0.14,0.201 ± 0.11
SAGGSAGGSAAGFTAPVVQVRTENGKIYIDVKNSSVSLTVPENAEITPLESEVVKITPLPAPSAGGSAGGSA [r18_468_JUSTAS],0.542 ± 0.1,0.00621 ± 0.22
SAGGSAGGSAARAYTDVDPVPSTLPNGERVVRVTEAGTGTTSDVPLEALADLDRGAGVTVPPSAGGSAGGSA [r18_288_JUSTAS],0.538 ± 0.059,-0.249 ± 0.069
SAGGSAGGSADNPQVERTIHDPNGGFKVMINPNDNSIEIWPYKNDKPEPKTFDSPEALDDISAGGSAGGSAG [r3_426_TrROS],0.136 ± 0.17,-0.387 ± 0.29
SAGGSAGGSAEKDVKLLDVEELEEERVALVEFPVDPKVVRIKFDKDMTIDEIKKKAKELAGSAGGSAGGSAG [r3_142_TrMRF],0.523 ± 0.03,0.0889 ± 0.15
SAGGSAGGSAEVTFKKVSFSPPENTVYVSEVKAKLYVGEDDSLKFKVEPVKVEKVSPADLLAKSAGGSAGGS [r12_374_TrMRF],0.0476 ± 0.16,-0.439 ± 0.16
SAGGSAGGSAGGAAEVLEALRAARGQPVVVLVKDPAGNEREVTVPGDTARFPGWTVVELLSAGGSAGGSAGG [r7_998_JUSTAS],0.739 ± 0.11,0.341 ± 0.17
SAGGSAGGSAGGAIEEARDLAKEGGPWEATIPVYDPNGGPKTIKIRVEVERDPENGKFKSAGGSAGGSAGGS [r10_346_TrROS],0.257 ± 0.12,-0.0783 ± 0.19
SAGGSAGGSAGGAMPNDVKVTTTTFTGTETLTLTDASGTPTSSTKTVTTTRTSVFPDTTSAGGSAGGSAGGS [r10_1212_JUSTAS],0.733 ± 0.1,0.311 ± 0.13
SAGGSAGGSAGGAPVTVIPVKKDNPEVREKTAKELKEKAKEIDPSNIKITIEKGVVTLESAGGSAGGSAGGS [r10_182_JUSTAS],0.263 ± 0.049,-0.0644 ± 0.13
SAGGSAGGSAGGAVGPDVGLPDAPVRFRNPSDDKVFTAYVPAGANFADLAKKYGVEIEPSAGGSAGGSAGGS [r10_202_TrMRF],0.673 ± 0.14,0.167 ± 0.15
SAGGSAGGSAGGDVLLFVDESTGLADARALAEALGLKDVVIVPVPPAKPVVLNADGSPTSAGGSAGGSAGGS [r10_1083_TrMRF],0.63 ± 0.052,-0.0616 ± 0.1
SAGGSAGGSAGGEPDPKFHVEYDEEEGRYKVKIYNPNNNKKEEIEVPVPPGQPKEEAIKSAGGSAGGSAGGS [r10_676_TrROS],0.0247 ± 0.11,-0.269 ± 0.27
SAGGSAGGSAGGGERRRVLHINPEDGYIQRMEFDPDDGEPTGSETVPFKSPEDALDKLIDSAGGSAGGSAGG [r7_105_TrROS],0.342 ± 0.14,-0.152 ± 0.2
SAGGSAGGSAGGGEYAKIKIKNPINPKYKEIEIEIPSNKKNVIINATGSGNATITEIKLESAGGSAGGSAGG [r7_687_TrMRF],0.177 ± 0.27,-0.584 ± 0.49
SAGGSAGGSAGGGMILNITLIRPDGKPIVIEGPLDKPLYNPKKAGIENIPPEKLVKVEPRSAGGSAGGSAGG [r7_745_TrMRF],-0.891 ± 0.8,< -1
SAGGSAGGSAGGGMRLVEVPPGDPAAVEARLAELGPDARLLEVRRLPEEGRWVVLVSEESAGGSAGGSAGGS [r10_23_JUSTAS],0.643 ± 0.2,-0.258 ± 0.33
SAGGSAGGSAGGGPMLRYTLTFTLPDSTVTKEFSSEEEVEEAKEQLPEEYPVDPNVTVSPSAGGSAGGSAGG [r7_18_JUSTAS],-0.113 ± 0.43,-0.22 ± 0.32
SAGGSAGGSAGGGPNIRTVTETTVEPTPDSVVTTRPVYYVDPSGTVLGSETTTTVDPNTTSAGGSAGGSAGG [r7_812_JUSTAS],0.179 ± 0.034,-0.26 ± 0.13

Sequence,folding stability dG unfold [1] [kcal/mol],folding stability dG unfold [2] [kcal/mol]
SAGGSAGGSAGGGPPLPLRVEREEKVEKTPDDRVLIKRKVTVELPDRPLSEEESIEILLESAGGSAGGSAGG [r7_293_JUSTAS],0.146 ± 0.2,-0.415 ± 0.25
SAGGSAGGSAGGIYIPLEDLEKNGLGFEELVEKLGVDVEIEVLETEPGKPVAKIRPKLGSAGGSAGGSAGGS [r10_855_TrMRF],0.968 ± 0.027,0.435 ± 0.093
SAGGSAGGSAGGKTLSKEEALKKAKELAEKGEKVKIEVKNKKTKKTETIEITKEELEKLSAGGSAGGSAGGS [r10_779_TrROS_Hall],0.47 ± 0.13,0.151 ± 0.44
SAGGSAGGSAGGLIPPNQKIKIKEIEPPNNEMNIDLEYPDNGKKVEFPFDSPEQALDALSAGGSAGGSAGGS [r10_1038_TrROS],0.658 ± 0.049,0.227 ± 0.14
SAGGSAGGSAGGLPINARPPNIAEVIRALRESGRYRVVEIRPFGDGAVIRVEKDGVPLESAGGSAGGSAGGS [r10_695_TrMRF],0.769 ± 0.19,0.0741 ± 0.34
SAGGSAGGSAGGMKIRVTHPTNKTEEIIPVSELKKIPGPYTIEPLGPDPELAEKIKKLLSAGGSAGGSAGGS [r10_419_JUSTAS],0.553 ± 0.22,0.142 ± 0.25
SAGGSAGGSAGGMKITLKVKKPDGTTTTITVDIDESKIEEIKEEIAPKGYEVEEAEIELESAGGSAGGSAGG [r7_159_JUSTAS],0.638 ± 0.12,0.00742 ± 0.36
SAGGSAGGSAGGMPAEEVQNIIEEQGFDGPNQTVTIDVPDGRRVKIEMPPNGMKLEVEDSAGGSAGGSAGGS [r10_604_TrROS],0.0665 ± 0.081,-0.538 ± 0.31
SAGGSAGGSAGGMPPRLVEIPIFVPPTDPARAEALAEELREELGAEEVVVRIVLAPPGLGSAGGSAGGSAGG [r7_632_JUSTAS],0.982 ± 0.013,0.414 ± 0.072
SAGGSAGGSAGGMRTFPSESLETLPENGLRKKTLTVTYVPPDNPERSYVETEVEIIPSEVSAGGSAGGSAGG [r17_241_JUSTAS],-1.03 ± 0.34,< -1
SAGGSAGGSAGGMTETVTLTEVGVTTKTAPLPEGPLTTTPTVTVDRVITLPPSSPAALALSAGGSAGGSAGG [r7_889_JUSTAS],-0.257 ± 0.42,< -1
SAGGSAGGSAGGMTLTVKDPASDEWTTVDLSPEQLPEVRAAVPEGPVTFELEASDSVIELSAGGSAGGSAGG [r7_188_JUSTAS],0.94 ± 0.061,0.409 ± 0.059
SAGGSAGGSAGGMVKTTTQVSIDPNSDYRYTTTTTTVVDANGKPLATQTTLTVTKLAGTSSAGGSAGGSAGG [r7_616_JUSTAS],-0.125 ± 0.34,-0.516 ± 0.42
SAGGSAGGSAGGMYSVTLTPVSSPDGELRLRAVYPELGLVRDFDPATGRPVRVVPAALLSAGGSAGGSAGGS [r10_589_JUSTAS],0.411 ± 0.22,-0.422 ± 0.26
SAGGSAGGSAGGNDPNGQEKEIPIDPGQRADEIAEEFKDEFNPDHVEIEASEEGYAEVRVSAGGSAGGSAGG [r7_273_TrROS],0.887 ± 0.044,0.348 ± 0.079
SAGGSAGGSAGGNVPIPFLPEGFDVEVKKIEVPTPGKVKLVLVPKNSDEEFELEFSPEELSAGGSAGGSAGG [r7_342_TrMRF],-0.633 ± 0.2,< -1
SAGGSAGGSAGGPELPEDVPVVEVVHLDLPFSPDEPEVVEEAEAKAAALEEGGALAEIRRSAGGSAGGSAGG [r11_519_JUSTAS],0.728 ± 0.06,0.0364 ± 0.097
SAGGSAGGSAGGPIKIKHNDGVEITIPADNVRSVDTNPGPGYIKITFPGNGQEFQIPIDSAGGSAGGSAGGS [r10_200_TrROS],0.00978 ± 0.031,-0.306 ± 0.12
SAGGSAGGSAGGPIRIKNIENVNPDDGMFTVDVEFPDGKNHTYMIPPDQLEEPGDEIEIPSAGGSAGGSAGG [r7_117_TrROS],-0.696 ± 0.54,< -1
SAGGSAGGSAGGPLPVTVTVLERTHYPEEGLYTVKTEGGTVITLPPELIDKHPPGSTVLLSAGGSAGGSAGG [r11_124_JUSTAS],-0.736 ± 0.82,< -1
SAGGSAGGSAGGPMRLVRIPLDDGKIKVVPIPPGEAIPFENDNGEIYFMVTDDKIEIMPSAGGSAGGSAGGS [r10_817_TrROS],0.181 ± 0.44,0.0436 ± 0.15
SAGGSAGGSAGGPPPGDKIEIIVIKFEPRYDPDGEPKNPRIDSIEVITIPADDPDDLLEASAGGSAGGSAGG [r7_439_TrROS],0.805 ± 0.079,0.348 ± 0.34
SAGGSAGGSAGGPRVGVVRELPDDSRVALLEIEETLTSPGPDGTPRSRPFRAVFVVPLGSAGGSAGGSAGGS [r10_718_TrMRF],0.69 ± 0.26,-0.16 ± 0.18

# From the supplement of paper PMC12764529
